Data taken from paper PMC10164577, “CAF-1 deposits newly synthesized histones during DNA replication using distinct mechanisms on the leading and lagging strands” (Nucleic Acids Research, 2022).
Positions count from the first letter of the chain named. In names and notes the source's numbering stands.

Assays:
Conditions in all cases: both partners purified
[1] = target: T1, Chromatin Assembly Factor-1 (CAF-1), wild type (yeast, UniProt Q12495 1-606; Q04199 1-468; P13712 1-422); experiment: SEC; PCNA (30 μM) loaded on nicked pUC19 (0.3 μM) by RFCΔN (0.5 μM) with 10 mM MgCl2 and 3 mM ATP, then CAF-1 (5 μM), 15 min room temperature; Superose 6 increase 3.2/300 in 50 mM HEPES pH 7.5, 200 mM NaCl, 0.01% IGEPAL, 1 mM TCEP, 10 mM MgCl2; fractions on SDS-PAGE
T1 construct: Cac1, large subunit of yeast CAF-1; Cac2, subunit of yeast CAF-1; Cac3, subunit of yeast CAF-1; Heterotrimer Cac1-Cac2-Cac3; also called WT CAF-1; copies: + +

[2] = target: T1, Chromatin Assembly Factor-1 (CAF-1), …; experiment: cross-linking; limiting PCNA: 50 nM AF546-PCNA K164C loaded on nicked pUC19 (15 nM) by full-length RFC (15 nM), CAF-1 titrated 0-1 μM, 100-110 mM NaCl; 0.2% glutaraldehyde; nuclease digestion; SDS-PAGE, PCNA fluorescence, band intensities; affinities estimated
[3] = target: T2, Clamp loader RFC (RFC1-5), full-length (yeast, UniProt P38630 1-861; P40348 1-353; P38629 1-340; P40339 1-323; P38251 1-354); experiment: as above
T2 construct: Rfc1, yeast replication factor C subunit 1; Rfc2, yeast replication factor C subunit 2; Rfc3, yeast replication factor C subunit 3; Rfc4, yeast replication factor C subunit 4; Rfc5, yeast replication factor C subunit 5; also called full-length RFC; copies: + + + +

[4] = target: Histones H3–H4 (H3 C110A-H4 E63C), Alexa488-labeled (Xenopus laevis, maleimide AlexaFluor-488 on E63C); experiment: fluorescence polarisation; 10 nM Alexa488-labeled H3–H4 with increasing CAF-1, Polϵ, Polδ or RPA; 25 mM TRIS pH 7.5, 300 mM NaCl, 5% glycerol, 1 mM EDTA, 0.01% IGEPAL, 0.01% CHAPS, 1 mM DTT; one site binding curve

B1: Proliferating Cell Nuclear Antigen (PCNA), wild type (natural protein, yeast, UniProt P15873 1-258, looked up)
chain: MLEAKFEEASLFKRIIDGFKDCVQLVNFQCKEDGIIAQAVDDSRVLLVSLEIGVEAFQEYRCDHPVTLGMDLTSLSKILRCGNNTDTLTLIADNTPDSIILLFEDTKKDRIAEYSLKLMDIDADFLKIEELQYDSTLSLPSSEFSKIVRDLSQLSDSINIMITKETIKFVADGDIGSGSVIIKPFVDMEHPETSIKLEMDQPVDLTFGAKYLLDIIKGSSLSDRVGIRLSSEAPALFQFDLKSGFLQFFLAPKFNDEE
notes: PCNA, yeast; homotrimeric clamp; In the SEC experiments loaded onto nicked pUC19 by RFCΔN and ATP
[1]
  binding result: binds

B2: PCNA K164C, labeled with Alexa Fluor 546 (natural protein, yeast, UniProt P15873 1-258, looked up)
chain: B1 chain with K164C
modifications: labeled with Alexa Fluor 546
notes: PCNA, yeast, K164C; also called fluorescently labeled PCNA; source: made by standard mutagenesis, purified following the wild-type protocol
[2]
  Kd: ~100 nM
[3]
  binding result: binds

B3: DNA polymerase delta (Polδ) (complex)
chain 1: MSEKRSLPMVDVKIDDEDTPQLEKKIKRQSIDHGVGSEPVSTIEIIPSDSFRKYNSQGFKAKDTDLMGTQLESTFEQELSQMEHDMADQEEHDLSSFERKKLPTDFDPSLYDISFQQIDAEQSVLNGIKDENTSTVVRFFGVTSEGHSVLCNVTGFKNYLYVPAPNSSDANDQEQINKFVHYLNETFDHAIDSIEVVSKQSIWGYSGDTKLPFWKIYVTYPHMVNKLRTAFERGHLSFNSWFSNGTTTYDNIAYTLRLMVDCGIVGMSWITLPKGKYSMIEPNNRVSSCQLEVSINYRNLIAHPAEGDWSHTAPLRIMSFDIECAGRIGVFPEPEYDPVIQIANVVSIAGAKKPFIRNVFTLNTCSPITGSMIFSHATEEEMLSNWRNFIIKVDPDVIIGYNTTNFDIPYLLNRAKALKVNDFPYFGRLKTVKQEIKESVFSSKAYGTRETKNVNIDGRLQLDLLQFIQREYKLRSYTLNAVSAHFLGEQKEDVHYSIISDLQNGDSETRRRLAVYCLKDAYLPLRLMEKLMALVNYTEMARVTGVPFSYLLARGQQIKVVSQLFRKCLEIDTVIPNMQSQASDDQYEGATVIEPIRGYYDVPIATLDFNSLYPSIMMAHNLCYTTLCNKATVERLNLKIDEDYVITPNGDYFVTTKRRRGILPIILDELISARKRAKKDLRDEKDPFKRDVLNGRQLALKISANSVYGFTGATVGKLPCLAISSSVTAYGRTMILKTKTAVQEKYCIKNGYKHDAVVVYGDTDSVMVKFGTTDLKEAMDLGTEAAKYVSTLFKHPINLEFEKAYFPYLLINKKRYAGLFWTNPDKFDKLDQKGLASVRRDSCSLVSIVMNKVLKKILIERNVDGALAFVRETINDILHNRVDISKLIISKTLAPNYTNPQPHAVLAERMKRREGVGPNVGDRVDYVIIGGNDKLYNRAEDPLFVLENNIQVDSRYYLTNQLQNPIISIVAPIIGDKQANGMFVVKSIKINTGSQKGGLMSFIKKVEACKSCKGPLRKGEGPLCSNCLARSGELYIKALYDVRDLEEKYSRLWTQCQRCAGNLHSEVLCSNKNCDIFYMRVKVKKELQEKVEQLSKW
chain 2: MDALLTKFNEDRSLQDENLSQPRTRVRIVDDNLYNKSNPFQLCYKKRDYGSQYYHIYQYRLKTFRERVLKECDKRWDAGFTLNGQLVLKKDKVLDIQGNQPCWCVGSIYCEMKYKPNVLDEVINDTYGAPDLTKSYTDKEGGSDEIMLEDESGRVLLVGDFIRSTPFITGVVVGILGMEAEAGTFQVLDICYPTPLPQNPFPAPIATCPTRGKIALVSGLNLNNTSPDRLLRLEILREFLMGRINNKIDDISLIGRLLICGNSVDFDIKSVNKDELMISLTEFSKFLHNILPSISVDIMPGTNDPSDKSLPQQPFHKSLFDKSLESYFNGSNKEILNLVTNPYEFSYNGVDVLAVSGKNINDICKYVIPSNDNGESENKVEEGESNDFKDDIEHRLDLMECTMKWQNIAPTAPDTLWCYPYTDKDPFVLDKWPHVYIVANQPYFGTRVVEIGGKNIKIISVPEFSSTGMIILLDLETLEAETVKIDI
chain 3: MDQKASYFINEKLFTEVKPVLFTDLIHHLKIGPSMAKKLMFDYYKQTTNAKYNCVVICCYKDQTIKIIHDLSNIPQQDSIIDCFIYAFNPMDSFIPYYDIIDQKDCLTIKNSYELKVSESSKIIERTKTLEEKSKPLVRPTARSKTTPEETTGRKSKSKDMGLRSTALLAKMKKDRDDKETSRQNELRKRKEENLQKINKQNPEREAQMKELNNLFVEDDLDTEEVNGGSKPNSPKETDSNDKDKNNDDLEDLLETTAEDSLMDVPKIQQTKPSETEHSKEPKSEEEPSSFIDEDGYIVTKRPATSTPPRKPSPVVKRALSSSKKQETPSSNKRLKKQGTLESFFKRKAK
[4]
  Kd: ≥ 300 nM
